The text below walks through data of the supplement of paper PMC10567573.

To fix the notation:
B1: NEUROD6 (parent)
chain: YHSPELTTPPGHGTLDNSKSMKPY
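Further: lentivirally expressed fusions sorted by FACS into six bins by GFP to DsRed ratio, PSI derived from sequencing read proportions per bin multiplied by bin number.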

In this data set the parent is B1. Briefly: protein stability index of a GFP-peptide fusion (GPS, HEK-293T) (PSI 1-6); higher = more stable. As to conditions: c terminus: a fixed tail appended.
YHSPELTVPPGHGTLDNSKSMKPY [T8V]: the protein stability index was 2.04.

With YHSPELTTWPGHGTLDNSKSMKPY [P9W], the protein stability index was 1.94.

In the case of YHSPELTTNPGHGTLDNSKSMKPY [P9N], the protein stability index is 2.24.

YHSPELTTAPGHGTLDNSKSMKPY [P9A]: the protein stability index stood at 2.04.

As for YHSPELTTTPGHGTLDNSKSMKPY [P9T], the protein stability index was determined as 2.32.

With YHSPELTTVPGHGTLDNSKSMKPY [P9V], the protein stability index amounted to 1.95.

For YHSPELTTYPGHGTLDNSKSMKPY [P9Y], the protein stability index was found to be 1.66.

YHSPELTTHPGHGTLDNSKSMKPY [P9H]: the protein stability index is 3.09.

Take YHSPELTTGPGHGTLDNSKSMKPY [P9G]: the protein stability index stood at 2.03.

As for YHSPELTTSPGHGTLDNSKSMKPY [P9S], the protein stability index is 2.22.

In the case of YHSPELTTFPGHGTLDNSKSMKPY [P9F], the protein stability index was 1.63.

For YHSPELTTEPGHGTLDNSKSMKPY [P9E], the protein stability index is 2.58.

For YHSPELTTDPGHGTLDNSKSMKPY [P9D], the protein stability index was determined as 2.78.

YHSPELTTMPGHGTLDNSKSMKPY [P9M]: the protein stability index was found to be 1.8.

For the variant YHSPELTTKPGHGTLDNSKSMKPY [P9K], the protein stability index was 2.45.

YHSPELTTIPGHGTLDNSKSMKPY [P9I]: the protein stability index turned out to be 2.35.

As for YHSPELTTRPGHGTLDNSKSMKPY [P9R], the protein stability index is 2.29.

With YHSPELTTLPGHGTLDNSKSMKPY [P9L], the protein stability index came to 2.64.

Consider YHSPELTTQPGHGTLDNSKSMKPY [P9Q], for which the protein stability index was 2.22.

As for YHSPELTTCPGHGTLDNSKSMKPY [P9C], the protein stability index was found to be 2.18.

Turning to YHSPELTTPGGHGTLDNSKSMKPY [P10G], the protein stability index was found to be 1.78.

On to YHSPELTTPQGHGTLDNSKSMKPY [P10Q], for which the protein stability index was 2.02.

YHSPELTTPDGHGTLDNSKSMKPY [P10D]: the protein stability index came to 2.74.

For YHSPELTTPNGHGTLDNSKSMKPY [P10N], the protein stability index came out at 1.97.

Consider YHSPELTTPIGHGTLDNSKSMKPY [P10I], for which the protein stability index was 1.67.

On to YHSPELTTPCGHGTLDNSKSMKPY [P10C], for which the protein stability index was determined as 1.9.

In the case of YHSPELTTPMGHGTLDNSKSMKPY [P10M], the protein stability index was found to be 1.88.

On to YHSPELTTPRGHGTLDNSKSMKPY [P10R], for which the protein stability index worked out at 2.3.

As to YHSPELTTPTGHGTLDNSKSMKPY [P10T], the protein stability index turned out to be 1.7.

For YHSPELTTPYGHGTLDNSKSMKPY [P10Y], the protein stability index was 1.96.

Turning to YHSPELTTPKGHGTLDNSKSMKPY [P10K], the protein stability index came to 2.13.

For the variant YHSPELTTPSGHGTLDNSKSMKPY [P10S], the protein stability index came out at 1.75.

In the case of YHSPELTTPEGHGTLDNSKSMKPY [P10E], the protein stability index is 2.42.

Consider YHSPELTTPVGHGTLDNSKSMKPY [P10V], for which the protein stability index stood at 2.33.

Consider YHSPELTTPAGHGTLDNSKSMKPY [P10A], for which the protein stability index came to 1.81.

On to YHSPELTTPWGHGTLDNSKSMKPY [P10W], for which the protein stability index was found to be 3.84.

As for YHSPELTTPHGHGTLDNSKSMKPY [P10H], the protein stability index came to 2.17.

As for YHSPELTTPLGHGTLDNSKSMKPY [P10L], the protein stability index was 2.13.

YHSPELTTPFGHGTLDNSKSMKPY [P10F]: the protein stability index is 2.03.

YMSPELTTPPGHGTLDNSKSMKPY [H2M]: the protein stability index stood at 4.18.

As to YDSPELTTPPGHGTLDNSKSMKPY [H2D], the protein stability index was determined as 4.75.

Consider YRSPELTTPPGHGTLDNSKSMKPY [H2R], for which the protein stability index came to 4.14.

For YSSPELTTPPGHGTLDNSKSMKPY [H2S], the protein stability index is 4.53.

Regarding YYSPELTTPPGHGTLDNSKSMKPY [H2Y], the protein stability index is 4.04.

For the variant YCSPELTTPPGHGTLDNSKSMKPY [H2C], the protein stability index was 3.23.

As to YNSPELTTPPGHGTLDNSKSMKPY [H2N], the protein stability index is 4.71.

With YQSPELTTPPGHGTLDNSKSMKPY [H2Q], the protein stability index was 3.15.

Consider YWSPELTTPPGHGTLDNSKSMKPY [H2W], for which the protein stability index was 3.91.

For the variant YESPELTTPPGHGTLDNSKSMKPY [H2E], the protein stability index is 5.07.

Consider YVSPELTTPPGHGTLDNSKSMKPY [H2V], for which the protein stability index was found to be 2.25.

Take YPSPELTTPPGHGTLDNSKSMKPY [H2P]: the protein stability index is 4.29.

For YLSPELTTPPGHGTLDNSKSMKPY [H2L], the protein stability index turned out to be 3.17.

Turning to YTSPELTTPPGHGTLDNSKSMKPY [H2T], the protein stability index was determined as 3.61.

As for YASPELTTPPGHGTLDNSKSMKPY [H2A], the protein stability index turned out to be 3.41.

YGSPELTTPPGHGTLDNSKSMKPY [H2G]: the protein stability index is 4.41.

Take YISPELTTPPGHGTLDNSKSMKPY [H2I]: the protein stability index was found to be 2.17.

In the case of YKSPELTTPPGHGTLDNSKSMKPY [H2K], the protein stability index is 4.69.

For the variant YFSPELTTPPGHGTLDNSKSMKPY [H2F], the protein stability index stood at 4.01.

As to YHSKELTTPPGHGTLDNSKSMKPY [P4K], the protein stability index was determined as 2.18.

On to YHSWELTTPPGHGTLDNSKSMKPY [P4W], for which the protein stability index was determined as 2.82.

With YHSNELTTPPGHGTLDNSKSMKPY [P4N], the protein stability index turned out to be 2.46.

Consider YHSMELTTPPGHGTLDNSKSMKPY [P4M], for which the protein stability index is 2.52.

For YHSEELTTPPGHGTLDNSKSMKPY [P4E], the protein stability index amounted to 3.36.

For the variant YHSHELTTPPGHGTLDNSKSMKPY [P4H], the protein stability index turned out to be 2.07.

Consider YHSSELTTPPGHGTLDNSKSMKPY [P4S], for which the protein stability index turned out to be 2.44.

Consider YHSDELTTPPGHGTLDNSKSMKPY [P4D], for which the protein stability index came to 2.97.

Regarding YHSRELTTPPGHGTLDNSKSMKPY [P4R], the protein stability index turned out to be 2.32.

Regarding YHSVELTTPPGHGTLDNSKSMKPY [P4V], the protein stability index came to 2.11.

Turning to YHSYELTTPPGHGTLDNSKSMKPY [P4Y], the protein stability index amounted to 1.68.

As to YHSAELTTPPGHGTLDNSKSMKPY [P4A], the protein stability index is 2.6.

With YHSGELTTPPGHGTLDNSKSMKPY [P4G], the protein stability index stood at 2.02.

As to YHSFELTTPPGHGTLDNSKSMKPY [P4F], the protein stability index worked out at 2.21.

As for YHSLELTTPPGHGTLDNSKSMKPY [P4L], the protein stability index turned out to be 1.95.

With YHSQELTTPPGHGTLDNSKSMKPY [P4Q], the protein stability index is 2.46.

Consider YHSIELTTPPGHGTLDNSKSMKPY [P4I], for which the protein stability index was 2.23.

Consider YHSTELTTPPGHGTLDNSKSMKPY [P4T], for which the protein stability index was 2.08.

With YHSCELTTPPGHGTLDNSKSMKPY [P4C], the protein stability index was 2.38.

With YHSPLLTTPPGHGTLDNSKSMKPY [E5L], the protein stability index worked out at 1.67.

With YHSPDLTTPPGHGTLDNSKSMKPY [E5D], the protein stability index was found to be 2.76.

As to YHSPMLTTPPGHGTLDNSKSMKPY [E5M], the protein stability index stood at 1.98.

Turning to YHSPFLTTPPGHGTLDNSKSMKPY [E5F], the protein stability index came to 2.83.

Turning to YHSPVLTTPPGHGTLDNSKSMKPY [E5V], the protein stability index is 2.14.

Turning to YHSPCLTTPPGHGTLDNSKSMKPY [E5C], the protein stability index amounted to 1.75.

Consider YHSPSLTTPPGHGTLDNSKSMKPY [E5S], for which the protein stability index worked out at 2.29.

As for YHSPKLTTPPGHGTLDNSKSMKPY [E5K], the protein stability index was 2.14.

Regarding YHSPRLTTPPGHGTLDNSKSMKPY [E5R], the protein stability index was found to be 2.66.

As for YHSPGLTTPPGHGTLDNSKSMKPY [E5G], the protein stability index is 2.14.

As to YHSPILTTPPGHGTLDNSKSMKPY [E5I], the protein stability index turned out to be 2.25.

As to YHSPNLTTPPGHGTLDNSKSMKPY [E5N], the protein stability index turned out to be 2.43.

As for YHSPTLTTPPGHGTLDNSKSMKPY [E5T], the protein stability index is 2.28.

Take YHSPALTTPPGHGTLDNSKSMKPY [E5A]: the protein stability index was found to be 2.71.

For the variant YHSPQLTTPPGHGTLDNSKSMKPY [E5Q], the protein stability index worked out at 2.34.

Consider YHSPWLTTPPGHGTLDNSKSMKPY [E5W], for which the protein stability index is 2.56.

Regarding YHSPYLTTPPGHGTLDNSKSMKPY [E5Y], the protein stability index was 2.32.
